For one data set, the target named is T1, knowpain-4 (KP4) (Plasmodium knowlesi, UniProt A0A384LCH8).
T1 construct: gene PKNH_0912800
The data set is described as follows: inhibition of Z-LR-AMC hydrolysis, fluorescence. It is filed as biochemical. Particulars: 10 µM inhibitor, 10 nM enzyme, 5 min preincubation, sodium acetate pH 5.5, 25 µM Z-LR-AMC; covalent.

A further data set concerns the target T2, knowpain-3 (KP3) (Plasmodium knowlesi, UniProt A0A384KX24).
T2 construct: gene PKNH_0912900
Kind of data set: inhibition of Z-LR-AMC hydrolysis, fluorescence. It is filed as biochemical. The settings on record: 10 µM inhibitor, 100 nM enzyme, 5 min preincubation, sodium acetate pH 5.5, 25 µM Z-LR-AMC; covalent.

Data set [1] has as its system Cc1cc(=O)oc2cc(NC(=O)[C@H](CCCNC(=N)N)NC(=O)[C@H](CC(C)C)NC(=O)OCc3ccccc3)ccc12. The data set is described as follows: purified protein. Particulars: 100 mM sodium acetate pH 5.5, 10 mM DTT, 37°C.
The test system of data set [2] is Cc1cc(=O)oc2cc(NC(=O)[C@H](CCCNC(=N)N)NC(=O)[C@H](CCCNC(=N)N)NC(=O)OCc3ccccc3)ccc12. The data set is described as follows: purified protein. Particulars: 100 mM sodium acetate pH 5.5, 10 mM DTT, 37°C.
Text: (§1) fluorogenic AMC release, initial rates, ORIGIN fit on knowpain-4 (KP4)
Data set [3] relates to Cc1cc(=O)oc2cc(NC(=O)[C@H](CCCNC(=N)N)NC(=O)[C@H](Cc3ccccc3)NC(=O)OCc3ccccc3)ccc12. The data set is described as follows: purified protein. Particulars: 100 mM sodium acetate pH 5.5, 10 mM DTT, 37°C.
Text: as §1

T2 sequence (A0A384KX24 entry or part of it): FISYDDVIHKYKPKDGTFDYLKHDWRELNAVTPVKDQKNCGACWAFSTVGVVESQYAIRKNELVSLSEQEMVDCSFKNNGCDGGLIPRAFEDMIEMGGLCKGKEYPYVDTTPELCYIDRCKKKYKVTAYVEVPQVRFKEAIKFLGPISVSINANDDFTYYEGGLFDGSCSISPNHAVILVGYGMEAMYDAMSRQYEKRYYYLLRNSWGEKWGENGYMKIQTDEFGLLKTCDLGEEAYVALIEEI
T1 sequence (A0A384LCH8 entry or part of it): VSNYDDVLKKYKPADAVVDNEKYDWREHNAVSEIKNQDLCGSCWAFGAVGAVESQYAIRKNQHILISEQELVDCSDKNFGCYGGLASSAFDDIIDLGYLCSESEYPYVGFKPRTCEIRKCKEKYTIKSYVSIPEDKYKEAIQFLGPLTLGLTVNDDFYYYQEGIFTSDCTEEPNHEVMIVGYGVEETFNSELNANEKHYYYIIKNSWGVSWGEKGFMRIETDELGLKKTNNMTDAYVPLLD

For the molecule `CC(C)C[C@H](NC(=O)[C@@H]1O[C@H]1C(=O)O)C(=O)NCCCCN=C(N)N` [E64, trans-epoxysuccinyl-L-leucylamido-(4-guanidino) butane], the “% of control activity at 10 μM” value at knowpain-4 (KP4) was “blocked by the cysteine protease inhibitors E64 and leupeptin”; on knowpain-3 (KP3) it was “blocked by the cysteine protease inhibitors E64 and leupeptin”.

What is called Km is the concentration of substrate that gives half-maximal velocity. Broadly, the kcat is the number of substrate molecules converted per active site and unit of time at saturation. Broadly, the kcat/Km is the second-order rate constant that governs catalysis at low substrate concentration. Consider “knowpain-2 (KP2) (Plasmodium knowlesi strain H)”, for which, in data set [1], the Km turned out to be 14.26 ± 0.27 µM, the kcat was 0.0011 s⁻¹ and the kcat/Km was determined as 75.6 M⁻¹ s⁻¹.

On to “knowpain-3 (KP3) (Plasmodium knowlesi strain H)”, for which, in data set [1], the Km is 30.56 ± 1.23 µM, the kcat is 0.0156 s⁻¹ and the kcat/Km worked out at 511 M⁻¹ s⁻¹.

“knowpain-4 (KP4) (Plasmodium knowlesi strain H)”: in data set [1], the Km is 4.20 ± 0.25 µM, the kcat was 0.0129 s⁻¹ and the kcat/Km came to 3070 M⁻¹ s⁻¹. In data set [2], the Km is 2.13 ± 0.17 µM, the kcat was determined as 0.0435 s⁻¹ and the specificity constant (kcat/Km) amounted to 20500 M⁻¹ s⁻¹. Moreover, in data set [3], the Km came to 4.20 ± 0.19 µM, the kcat came to 0.0062 s⁻¹ and the kcat/Km was found to be 1470 M⁻¹ s⁻¹.

The record behind these values is PMC3520923, “Expression, Characterization, and Cellular Localization of Knowpains, Papain-Like Cysteine Proteases of the Plasmodium knowlesi Malaria Parasite” (PLoS ONE, 2012).
